The source of these data is patent publication US20170242041.

The test system of data set [1] is recombinant human GFAP with C-terminal tag (DDK).
Chain of recombinant human GFAP with C-terminal tag (DDK) (chain, as listed by the source): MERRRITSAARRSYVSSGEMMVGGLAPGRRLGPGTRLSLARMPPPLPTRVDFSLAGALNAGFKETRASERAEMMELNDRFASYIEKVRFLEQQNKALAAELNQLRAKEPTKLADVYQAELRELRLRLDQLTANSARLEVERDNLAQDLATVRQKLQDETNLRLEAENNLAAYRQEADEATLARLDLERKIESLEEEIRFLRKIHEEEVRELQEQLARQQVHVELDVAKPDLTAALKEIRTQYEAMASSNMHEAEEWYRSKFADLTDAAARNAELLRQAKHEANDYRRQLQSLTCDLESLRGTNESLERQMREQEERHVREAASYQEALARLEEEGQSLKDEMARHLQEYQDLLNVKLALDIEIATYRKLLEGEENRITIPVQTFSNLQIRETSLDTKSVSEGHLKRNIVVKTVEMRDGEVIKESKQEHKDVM

Chain of rat Tau (intact protein) (chain, as listed by the source): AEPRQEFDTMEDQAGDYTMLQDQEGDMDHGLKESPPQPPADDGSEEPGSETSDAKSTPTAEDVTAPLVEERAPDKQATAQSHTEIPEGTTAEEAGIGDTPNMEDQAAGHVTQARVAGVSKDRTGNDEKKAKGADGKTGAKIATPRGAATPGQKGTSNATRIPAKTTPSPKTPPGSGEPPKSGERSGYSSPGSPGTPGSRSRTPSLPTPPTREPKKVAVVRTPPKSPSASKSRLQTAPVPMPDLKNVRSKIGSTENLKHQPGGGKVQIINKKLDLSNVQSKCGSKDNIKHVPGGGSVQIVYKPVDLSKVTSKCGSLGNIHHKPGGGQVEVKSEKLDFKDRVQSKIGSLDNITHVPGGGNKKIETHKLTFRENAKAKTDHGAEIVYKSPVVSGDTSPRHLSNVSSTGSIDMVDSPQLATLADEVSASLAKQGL
Chain of calpain-2 (P17655 20-700): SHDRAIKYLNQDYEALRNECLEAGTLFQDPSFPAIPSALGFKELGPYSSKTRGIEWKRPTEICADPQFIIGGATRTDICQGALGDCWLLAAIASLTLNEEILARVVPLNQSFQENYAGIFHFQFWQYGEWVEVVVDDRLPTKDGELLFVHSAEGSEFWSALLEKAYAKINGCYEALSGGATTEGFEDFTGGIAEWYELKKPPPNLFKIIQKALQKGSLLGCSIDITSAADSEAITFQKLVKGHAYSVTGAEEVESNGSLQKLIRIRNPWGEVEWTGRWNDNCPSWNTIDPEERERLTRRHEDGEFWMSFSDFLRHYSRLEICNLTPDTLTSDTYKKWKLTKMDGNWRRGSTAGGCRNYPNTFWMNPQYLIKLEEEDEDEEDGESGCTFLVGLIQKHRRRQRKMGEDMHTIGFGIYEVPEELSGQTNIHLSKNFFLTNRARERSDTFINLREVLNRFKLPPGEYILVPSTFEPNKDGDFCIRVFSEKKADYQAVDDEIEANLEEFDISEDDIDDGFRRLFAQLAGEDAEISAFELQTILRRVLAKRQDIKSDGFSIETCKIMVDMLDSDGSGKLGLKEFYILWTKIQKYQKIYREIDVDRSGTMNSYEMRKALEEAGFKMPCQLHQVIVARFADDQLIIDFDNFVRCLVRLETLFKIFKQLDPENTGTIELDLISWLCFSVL
Chain of calpain-1 (P07384 2-714): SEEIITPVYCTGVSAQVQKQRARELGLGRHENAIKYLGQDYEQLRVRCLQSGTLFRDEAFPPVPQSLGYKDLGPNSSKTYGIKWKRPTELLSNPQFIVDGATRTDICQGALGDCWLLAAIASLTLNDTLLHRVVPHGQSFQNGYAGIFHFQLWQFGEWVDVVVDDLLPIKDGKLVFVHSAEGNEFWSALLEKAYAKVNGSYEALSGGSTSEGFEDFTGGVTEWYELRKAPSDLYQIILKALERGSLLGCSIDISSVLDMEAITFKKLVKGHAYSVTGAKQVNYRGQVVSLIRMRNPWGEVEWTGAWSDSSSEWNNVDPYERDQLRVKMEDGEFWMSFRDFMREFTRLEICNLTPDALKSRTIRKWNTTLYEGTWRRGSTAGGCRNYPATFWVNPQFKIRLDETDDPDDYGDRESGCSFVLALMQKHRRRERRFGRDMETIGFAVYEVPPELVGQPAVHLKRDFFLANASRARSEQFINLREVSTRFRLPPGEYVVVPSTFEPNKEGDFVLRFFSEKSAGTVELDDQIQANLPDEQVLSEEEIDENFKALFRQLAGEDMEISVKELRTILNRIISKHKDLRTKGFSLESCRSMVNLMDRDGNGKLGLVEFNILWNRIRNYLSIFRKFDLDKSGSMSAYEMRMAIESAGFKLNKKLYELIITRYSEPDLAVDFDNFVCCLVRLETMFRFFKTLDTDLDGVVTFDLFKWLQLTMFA

Consider calpain (calpain 2 or calpain 1), for which the “proteolytic cleavage; N-terminal sequencing of fragments” value in the data set on rat Tau (intact protein) is “Calpain cleaves rat tau at Lys43 ... Ser120 ... Val220 ... and Arg370”. Further, the proteolytic cleavage sites result in the data set with human Tau was “Human TBDPs are produced from Human Tau by calpain cleavage at Ser129 ... Val229 ... Gly157 ... Lys44 ... and Arg379”.

In the case of calpain-1, in the data set with rat Tau (intact protein), the “proteolytic digestion, western blot of fragments” value is “Both calpain-1 and -2 digest tau into several immunoreactive fragments (42 kDa, 35 kDa and 15 kDa)”.

Consider calpain-2, for which the “proteolytic cleavage; N-terminal sequencing of excised GBDP bands” value in data set [1] is “cleavage by calpain 2 at Asn59 (GALN*59AGFKETRASERAE) ... and Thr383 (TIPVQT*383FSNLQIRET) ... overall producing multiple GBDPs between 49 and 38 kDa in recombinant human GFAP”. The “proteolytic digestion, western blot of fragments” value in the data set with rat Tau (intact protein) is “Both calpain-1 and -2 digest tau into several immunoreactive fragments (42 kDa, 35 kDa and 15 kDa)”. In addition, the “proteolytic digestion, western blot with anti-total tau antibody” value with human Tau was “Treatment of human tau with calpain or caspase produce numerous breakdown products”.

In the case of caspase-3, the “proteolytic cleavage (Coomassie, anti-DDK and anti-GFAP western blot)” value in data set [1] was “illustrates successful cleavage by both calpain and caspase”. Besides, in the data set with rat Tau (intact protein), the “proteolytic cleavage; N-terminal sequencing of fragments” value is “Caspase-3 cleaves rat Tau at Asp412 (SSTGSIDMVD*412SPQLATLA (SEQ ID NO: 10))” and the “proteolytic digestion, western blot of fragments” value is “caspase-3 digestion only produces limited fragment doublet of 48 kDa/45/kDa”. For the same substance, in the data set on human Tau, the proteolytic cleavage sites result was “Caspase cleavage sites in human Tau are Asp25 (GDRKD*25QGGYTMHQD (SEQ ID NO: 17)) ... and Asp421 (SSTGSIDMVD*421SPQLATLA (SEQ ID NO: 18))”; the “proteolytic digestion, western blot with anti-total tau antibody” value is listed as “Treatment of human tau with calpain or caspase produce numerous breakdown products”.
